In patent US20240252613A1 (ACHELOIS BIOPHARMA, published 2024):

Key:
[1] = target: T1, 4-1BBL on transfected S293 cells (Mus musculus (Mouse), UniProt P41274 1-309); assay: FACS, dye-labeled MVP on transfected S293 cells
T1 construct: also called 4-1BB ligand
T1 sequence: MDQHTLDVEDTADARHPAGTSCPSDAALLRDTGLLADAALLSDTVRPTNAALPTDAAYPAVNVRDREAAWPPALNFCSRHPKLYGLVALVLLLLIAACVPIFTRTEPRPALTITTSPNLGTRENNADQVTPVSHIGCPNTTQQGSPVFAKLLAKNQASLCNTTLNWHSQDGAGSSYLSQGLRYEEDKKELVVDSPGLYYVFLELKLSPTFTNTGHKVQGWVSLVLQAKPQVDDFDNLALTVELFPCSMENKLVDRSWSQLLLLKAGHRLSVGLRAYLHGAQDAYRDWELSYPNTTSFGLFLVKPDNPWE

[2] = target: T2, OX40L on transfected S293 cells (Mus musculus (Mouse), UniProt P43488 1-198); assay: FACS, dye-labeled MVP on transfected S293 cells
T2 construct: also called OX40 ligand
T2 sequence: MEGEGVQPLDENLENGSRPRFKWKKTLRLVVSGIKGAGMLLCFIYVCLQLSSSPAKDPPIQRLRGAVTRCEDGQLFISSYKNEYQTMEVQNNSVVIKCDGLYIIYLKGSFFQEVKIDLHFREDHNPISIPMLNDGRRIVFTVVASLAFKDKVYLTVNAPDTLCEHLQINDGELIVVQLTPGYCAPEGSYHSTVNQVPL

[3] = target: T2, OX40L on transfected S293 cells; assay: FACS, unlabeled MVP on transfected cells, detected with antibody
[4] = target: T3, CD2 on transfected S293 cells (Mus musculus (Mouse), UniProt P08920 23-344); assay: as above
T3 sequence: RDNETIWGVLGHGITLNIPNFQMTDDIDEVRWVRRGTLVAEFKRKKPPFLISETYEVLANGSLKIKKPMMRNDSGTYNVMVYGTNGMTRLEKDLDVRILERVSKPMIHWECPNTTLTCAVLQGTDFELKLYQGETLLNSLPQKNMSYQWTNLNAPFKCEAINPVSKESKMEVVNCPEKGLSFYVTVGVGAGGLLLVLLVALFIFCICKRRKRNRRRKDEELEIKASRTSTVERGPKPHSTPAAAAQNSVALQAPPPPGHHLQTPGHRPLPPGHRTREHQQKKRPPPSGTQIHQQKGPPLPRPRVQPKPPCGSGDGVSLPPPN

[5] = target: T4, ICOS ligand on transfected S293 cells (Mus musculus (Mouse), UniProt Q9JHJ8 47-322); assay: FACS, dye-labeled MVP on transfected S293 cells
T4 sequence: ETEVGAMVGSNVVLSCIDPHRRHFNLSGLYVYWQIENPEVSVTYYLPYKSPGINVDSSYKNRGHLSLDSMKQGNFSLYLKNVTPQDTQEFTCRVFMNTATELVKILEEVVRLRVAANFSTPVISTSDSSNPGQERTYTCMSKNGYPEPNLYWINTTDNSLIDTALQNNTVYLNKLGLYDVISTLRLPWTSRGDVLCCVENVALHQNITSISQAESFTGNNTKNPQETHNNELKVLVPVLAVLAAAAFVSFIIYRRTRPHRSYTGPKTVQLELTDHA

[6] = target: T5, GITR Ligand on transfected S293 cells (Mus musculus (Mouse), UniProt Q7TS55 1-173); assay: FACS, dye-labeled MVP on transfected S293 cells
T5 sequence: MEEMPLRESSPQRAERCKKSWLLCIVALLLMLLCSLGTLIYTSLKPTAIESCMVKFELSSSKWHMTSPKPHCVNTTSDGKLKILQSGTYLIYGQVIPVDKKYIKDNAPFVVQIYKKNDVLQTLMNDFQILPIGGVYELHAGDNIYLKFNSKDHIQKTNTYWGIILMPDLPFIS

[7] = target: T5, GITR Ligand on transfected S293 cells; assay: FACS, unlabeled MVP on transfected cells, detected with antibody
[8] = target: T6, human TIM-3 on transfected S293 cells (human, UniProt Q8TDQ0 22-301); assay: FACS, dye-labeled MVP on transfected S293 cells
T6 construct: also called HAVCR2
T6 sequence: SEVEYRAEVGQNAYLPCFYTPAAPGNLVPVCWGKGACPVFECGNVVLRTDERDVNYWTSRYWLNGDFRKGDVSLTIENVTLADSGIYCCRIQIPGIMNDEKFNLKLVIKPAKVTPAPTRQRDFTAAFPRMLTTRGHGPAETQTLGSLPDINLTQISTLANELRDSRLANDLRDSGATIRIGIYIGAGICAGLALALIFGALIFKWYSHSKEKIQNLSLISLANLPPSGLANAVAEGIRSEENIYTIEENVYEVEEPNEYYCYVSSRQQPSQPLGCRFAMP

[9] = target: T6, human TIM-3 on transfected S293 cells; assay: FACS, unlabeled MVP on transfected cells, detected with antibody

B1: 4-1BB-MVP (other)
chain: VQNSCDNCQPGTFCRKYNPVCKSCPPSTFSSIGGQPNCNICRVCAGYFRFKKFCSSTHNAECECIEGFHCLGPQCTRCEKDCRPGQELTKQGCKTCSLGTFNDQNGTGVCRPWTNCSLDGRSVLKTGTTEKDVVCGPPVVSFSPSTTISVTPEGGPGGHSLQVLTDIIQADGWMCHASKWVTTCDFRWYGPKYITHSIRSFTPSVEQCKESIEQTKQGTWLNPGFPPQSCGYATVTDAEAVIVQVTPHHVLVDEYTGEWVDSQFINGKCSNYICPTVHNSTTWHSDYKVKGLCDSNLGMLDSDLHLSSKAQVFEHPHIQDAASQLPDDESLFFGDTGLSKNPIELVEGWFSSWKSSIASFFFIIGLIIGLFLVLRVGIHLCIKLKHTKKRQIYTDIEMNRLGK
notes: also called 4-1BB-MVPs; Murine 4-1BB-MVP
In the case of B1, the “fluorescence shift relative to control MVPs” value [1] is reported as ≥ 2 fold.

B2: OX40-MVP (other)
chain: VTARRLNCVKHTYPSGHKCCRECQPGHGMVSRCDHTRDTLCHPCETGFYNEAVNYDTCKQCTQCNHRSGSELKQNCTPTQDTVCRCRPGTQPRQDSGYKLGVDCVPCPPGHFSPGNNQACKPWTNCTLSGKQTRHPASDSLDAVCEDRSLLATLLWETQRPTFRPTTVQSTTVWPRTSELPSPPTLVTPEGPADIIQADGWMCHASKWVTTCDFRWYGPKYITHSIRSFTPSVEQCKESIEQTKQGTWLNPGFPPQSCGYATVTDAEAVIVQVTPHHVLVDEYTGEWVDSQFINGKCSNYICPTVHNSTTWHSDYKVKGLCDSNLGMLDSDLHLSSKAQVFEHPHIQDAASQLPDDESLFFGDTGLSKNPIELVEGWFSSWKSSIASFFFIIGLIIGLFLVLRVGIHLCIKLKHTKKRQIYTDIEMNRLGK
notes: also called OX40-MVPs; Murine OX40-MVP
B2 was tested, and the “fluorescence shift relative to control MVPs” value [2] was ≥ 2 fold and the “staining shift of target+ over target- cells” value (“staining shift of target+” below) [3] was 1 log.

B3: CD48-MVP (other)
chain: FQGHSIPDINATTGSNVTLKIHKDPLGPYKRITWLHTKNQKILEYNYNSTKTIFESEFKGRVYLEENNGALHISNVRKEDKGTYYMRVLRETENELKITLEVFDPVPKPSIEINKTEASTDSCHLRLSCEVKDQHVDYTWYESSGPFPKKSPGYVLDLIVTPQNKSTFYTCQVSNPVSSKNDTVYFTLPCDLARSSGVCWTATWLVVTTLIIHRILLTIIQADGWMCHASKWVTTCDFRWYGPKYITHSIRSFTPSVEQCKESIEQTKQGTWLNPGFPPQSCGYATVTDAEAVIVQVTPHHVLVDEYTGEWVDSQFINGKCSNYICPTVHNSTTWHSDYKVKGLCDSNLGMLDSDLHLSSKAQVFEHPHIQDAASQLPDDESLFFGDTGLSKNPIELVEGWFSSWKSSIASFFFIIGLIIGLFLVLRVGIHLCIKLKHTKKRQIYTDIEMNRLGK
notes: also called CD48-MVPs; Murine CD48-MVP
B3 was tested, and the “staining shift of target+” value [4] was > 1 log.

B4: ICOS-MVP (other)
chain: EINGSADHRMFSFHNGGVQISCKYPETVQQLKMRLFREREVLCELTKTKGSGNAVSIKNPMLCLYHLSNNSVSFFLNNPDSSQGSYYFCSLSIFDPPPFQERNLSGGYLHIYESQLCCQLKLDIIQADGWMCHASKWVTTCDFRWYGPKYITHSIRSFTPSVEQCKESIEQTKQGTWLNPGFPPQSCGYATVTDAEAVIVQVTPHHVLVDEYTGEWVDSQFINGKCSNYICPTVHNSTTWHSDYKVKGLCDSNLGMLDSDLHLSSKAQVFEHPHIQDAASQLPDDESLFFGDTGLSKNPIELVEGWFSSWKSSIASFFFIIGLIIGLFLVLRVGIHLCIKLKHTKKRQIYTDIEMNRLGK
notes: also called ICOS-MVPs; Murine ICOS-MVP
For B4, the “fluorescence shift relative to control MVPs” value [5] was ~2 fold.

B5: GITR-MVP (other)
chain: QPSVVEEPGCGPGKVQNGSGNNTRCCSLYAPGKEDCPKERCICVTPEYHCGDPQCKICKHYPCQPGQRVESQGDIVFGFRCVACAMGTFSAGRDGHCRLWTNCSQFGFLTMFPGNKTHNAVCIPEPLPTEQYGHIIQADGWMCHASKWVTTCDFRWYGPKYITHSIRSFTPSVEQCKESIEQTKQGTWLNPGFPPQSCGYATVTDAEAVIVQVTPHHVLVDEYTGEWVDSQFINGKCSNYICPTVHNSTTWHSDYKVKGLCDSNLGMLDSDLHLSSKAQVFEHPHIQDAASQLPDDESLFFGDTGLSKNPIELVEGWFSSWKSSIASFFFIIGLIIGLFLVLRVGIHLCIKLKHTKKRQIYTDIEMNRLGK
notes: also called GITR-MVPs; Murine GITR-MVP
B5 was tested, and the “fluorescence shift relative to control MVPs” value [6] was ≥ 2 log and the “staining shift of target+” value [7] was 1 log.

B6: human Ceacam1-MVP (other)
chain: QLTTESMPFNVAEGKEVLLLVHNLPQQLFGYSWYKGERVDGNRQIVGYAIGTQQATPGPANSGRETIYPNASLLIQNVTQNDTGFYTLQVIKSDLVNEEATGQFHVYPELPKPSISSNNSNPVEDKDAVAFTCEPETQDTTYLWWINNQSLPVSPRLQLSNGNRTLTLLSVTRNDTGPYECEIQNPVSANRSDPVTLNVTYGPDTPTISPSDTYYRPGANLSLSCYAASNPPAQYSWLINGTFQQSTQELFIPNITVNNSGSYTCHANNSVTGCNRTTVKTIIVTELSPVVAKPQIKASKTTVTGDKDSVNLTCSTNDTGISIRWFFKNQSLPSSERMKLSQGNTTLSINPVKREDAGTYWCEVFNPISKNQSDPIMLNVNYNALPQENGLSPGIIQADGWMCHASKWVTTCDFRWYGPKYITHSIRSFTPSVEQCKESIEQTKQGTWLNPGFPPQSCGYATVTDAEAVIVQVTPHHVLVDEYTGEWVDSQFINGKCSNYICPTVHNSTTWHSDYKVKGLCDSNLGMLDSDLHLSSKAQVFEHPHIQDAASQLPDDESLFFGDTGLSKNPIELVEGWFSSWKSSIASFFFIIGLIIGLFLVLRVGIHLCIKLKHTKKRQIYTDIEMNRLGK
notes: also called Ceacam1-MVPs
For B6, the “fluorescence shift relative to control MVPs” value [8] was ~2 fold and the “staining shift of target+” value [9] was ~2 fold.
